The source of these data is patent publication US20150203583A1.

The target of this assay is Fc receptor on monocytes of human PBMC effector cells (human). Put plainly: cell-based or functional assay.

With “DAC HYP (daclizumab, humanized IgG1 anti-CD25 monoclonal antibody made by the high yield process in NS0 cells)”, the maximal ADCC activity on KIT225/K6 cells, against ZENAPAX DAC and DAC Penzberg lay in the range of 30 to 40 % lower.
